# Laboratory results taken from the DeepSol protein solubility set.
# Test: soluble on expression in E. coli; label from the status in PepcDB or PDB records
row,Sequence,soluble on expression in E. coli
1,SLDARLWLERIRELPIPDGIRIMNVCGGHERSISMAGLRTALPPAIRLIPGPGCPVCICPEEDIYQAIRLGLEGEAVVATFGDMLRVPVNLGRQAVRTLEQAKAAGADIRPIASPIEARIIAEKAAGKPVVLFAVGFETTMAPVAALMAEGLPDNLYILCSGRLTWPAVKLLLDSDECVLDALVAPGHVATVMGPEEWAFVADDYRLPVAIAGFTPASLLRAIHSTIVQWLEETPRLDNCYPEAVKPGGNPKAREFLDRSFDVAAGNWRGIGPIAASAYALKPGFAAHDARLHFPDYDAGDRRHAGEMPAGCDCARVVLGRIQPDECRIYGKPCSPRSPVGPCMVSDEGACRIWWAAGVRKDSAAA,not soluble
2,SLDTTRPLSWDFQSQLMSNLKILYCLNMLKLSNWYFGGIMKVYGLFGINENAINDFIENHIKTFTIINALNLETVKNLKEGDLVFITSTLREDLRNGTEGILGRVINVSLVPQMINGFEEKEIIAGRVQLEMLGFAKCVKYESIHVEITFRMY,not soluble
3,SLDVCRGMLCGFGAVCEPSVEDPGRASCVCKKNVCPAMVAPVCGSDASTYSNECELQRAQCNQQRRIRLLRQGPCGSRDPCANVTCSFGSTCVPSADGQTASCLCPTTCFGAPDGTVCGSDGVDYPSECQLLRHACANQEHIFKKFDGPCDPCQGSMSDLNHICRVNPRTRHPEMLLRPENCPAQHTPICGDDGVTYENDCVMSRIGAARGLLLQKVRSGQCQT,soluble
4,SLEDYLQGCRAALQESRPLHVVLGNEACDLDSTVSALALAFYLAKTTEAEEVFVPVLNIKRSELPLRGDIVFFLQKVHIPESILIFRDEIDLHALYQAGQLTLILVDHHILSKSDTALEEAVAEVLDHRPIEPKHCPPCHVSVELVGSCATLVTERILQGAPEILDRQTAALLHGTIILDCVNMDLKIGKATPKDSKYVEKLEALFPDLPKRNDIFDSLQKAKFDVSGLTTEQMLRKDQKTIYRQGVKVAISAIYMDLEAFLQRSNLLADLHAFCQAHSYDVLVAMTIFFNTHNEPVRQLAIFCPHVALQTTICEVLERSHSPPLKLTPASSTHPNLHAYLQGNTQVSRKKLLPLLQEALSAYFDSMKIPSGQPETADVSREQVDKELDRASNSLISGLSQDEG,soluble
5,SLENVMRSLGFGFACKKGLKPDSPNQDDFAALCCSAFRLFGVFDGHGPSGHDVSGYVHRMLFALLLTDESLNRNPQLALRNAFVAPSKLRKSALLQVVCLPLFRPQPFTNVGGYDEAKAVRFVLFFSGGELKRLECDIPYRVFLKGRLYPGLAMSRALGDAIASHAGVSCEPDLSTVELDRSCLFVIIASDGVWEFISNQEAVNIVNEAMGSERKVRAKAAAERLALEAFKRWVEEEGNVVDDVFPVSPGGSHALPLLTTDPFIAKMKFLTNILLVLSCVLVLAGTVQGQKME,not soluble
6,SLERYIDGRAVKADIFDHPVSYNINEITHTDDVHEALTASLNKYGNVDMAYMESLTDKSQSDLLEELRGRIFYNPLSKNYEIADRFISGNVMAKAEHIEEYLQSHPDNGEARISLEALRQSLPAPIPFEDLDFNFGERWIPAGVYSRYASWLFDTDVSVRYTASSDEYSIRADMTSPRIMNQYSVRSESRIFNGIALMRHAIHNTTPNITKTVLDKTGKEMKIRDPEVTLLANSKIDEIRNGFSDWLMEQSPEFKRKMADMYNRKFNCFVRPKYDGSHQSFPGLDLKGLGIPDLYPSQ,not soluble
7,SLFGYHDVEDFQAEIGEYKIKTERIGPFYSYVRENGERKEKNLSVETGRIIVNPVEPVNLPKEITNFLQIKFSKPFLAEPKSAVEVYATFPVEIAVFIAAKKNVGLVDVFSLQKPKYTLYGNPRAGIICRYWESELYSEIPQVDKYREGVIKLRIVNSDDEWVEVSNAVFDVYGMKIYYNEEMVCSSASVNIVSPKVAETRFIEQPLREKMKKALELYTARRIAVTSLKFVMEWGL,not soluble
8,SLHPDTILHNGRVTTLDRGNPNATAVAIKDGLFVEVGSDAEVMALAGSETKIIDLKGKRVLPGLIDNHTHVIRGGLNFNMELRWDGVRSLADAMYMLKRQVAITPAPQWVRVVGGFTEHQFVEKRLPTIEEINAVAPDTPVFLLHLYDRALLNGAALRAVGYTKDTPNPPGGEITRDANGNPTGLLLAKPNAGILYSTLAKGPKLPLDYQVNSTRHFMRELNRLGVTGVIDAGGGFQNYPDDYEVIQKLSDENQMTVRLAYNLFTQKPKQEKEDFLNWTSSVKYKQGNDYFRHNGAGEMLVFSAADFEDFRQPRPDMPPEMEGELEDVVRILAENRWPWRLHATYDETISRALDVFEKVNRDIPLEGLNWFFDHAETISDRSIDRIAALGGGIATQHRMAYQGEYFVERYGQGVAEATPPIARMLEKGVNVSAGTDATRVASYNPWVSLFWMVTGKTVGGMQLYPRANCLDRETALRMWTEKVTWFSNEEGKKGRIEKGQFADLVVPDKDYFSCAEDEISFLTSELTMVGGKIVYGAGDFRVLDESNIPPAMPDWSPVRTFGGYAAWGEPQGAGKNSLRRAAITSCGCASDCGVHGHDHAGAWTSKLPIADLKGFFGALGCSCWAV,soluble
9,SLIDNPHAQDYWPNRGQMDVQGLAVKYTEAGRAVLSDISFSVEGGLSMGLLGRTGSGKSTLLSALLRLASTDGEISIDGISWNSVPLEKWRKAFGVVPQKVFILTGTFRMNLDPHGRYSDEELWRVADQVGLKSVIEQFPDRLDFQLENGGSVLSHGHKQLMCLARSILSKARILLLDEPSAYLDTITLQVLRKTLKHAFSDCTVILSEHKVEPLLECDSFLVIEGSSVKSYDSIQKLLNEMSDLKQAVSAAD,soluble
10,SLKIAIVRLSALGDIIQSAVVLQFIKNFKKDIEIHWFVDEKFEGILKNHPLINKLYALPLKDKKILKSLKILLKARKNNYNAVIDLQGLIKSAIVSRILSRNNFGFDKNSLKESFAHNFYNQKLELDYNENVFVRYLSLTSFMLNTDFNVKNLAFKQDIFSVDENLKQLLNNKLKLDKNEKNILIHVGSSVENKIYPKTKLAILCKLLINEFQQTKIWLAWGNVKEYEFAKEVLNLSGIDETHIELAPKFNLEELMAFTKMMNLIIGNDSGPTHLAFALNKASITIFGATPSYRNAFQTHINKIIDAGKKIQNAKHIDKSDFCITRIEEEDIFKLAKGLLN,soluble
11,SLKIRERFSMVDLPVLIITAAIIGHDKYKAFHAGANDILQKPYHYSEFMARIQNLIMMKHTANQATRMEMAFLQSQIKPHFLYNVLNTIISLTHLDIEKAREVTEEFTNYLRMSFDFQNTSAISSFRHELSIINSYLSIEKTRFSNRLEVLFDIDEDIDFILPPLMIQPLVENAVLHGVSKKRGGGWIKLTAKKQSKNEYHIKVEDNGPGITPEKQIDLLSTDFDRSVGLKNINQRLKHFCGSELMISSTPDAGTSVSMLIHLAETTGSPKELKDTERT,soluble
12,SLKNKTLIALLLACSPTLAFAHNLTVGSPVPAVGVEKHGEIVLQDNNINYQKWRSADLLGKVRVIQAIAGRSSSKEMNAPLMAAITAAKFPAESYQTTTIINQDDAIWGTSSFVKSSAQDSKKEFPWSSMVLDEFGLVAQAWQLQAESSAIIVQDKQGNVLFVKEGALNEADIQTVLGLIQQNL,not soluble
13,SLKYEDINENTIKITLSFDDLTDYDIKLSDFFGNQEVIEQFFYELVDELGLENRFGNVGMLTFQIQPFPQGVHMIVHEEAMLGEGGEIPDDPEEFEELMTGFYNKLNEIGADMARERGITDFKPGLGLPGTKKDEAEQEPDFIYYSIRYEDIMSVLTGIKNVKFADEESEFYRYDGNFYLVVLDNQKEKGKMHVESTRSRMMEYGEATKMSREFLQEYGECLIATRALDVLRKI,soluble
14,SLKYVDEFRNGDYAKTLVRLIQKLTKKKINIMEICGSHTMAIFRYGIKDILPSNIRLISGPGCPVCVTSQGYIDTALELSLSREVIIATFGDMIRVPGTKTSLMKRKAEGADIKIVYSPMDALTLAENNPLKKVVFLSVGFETTTPITAITILEAKKRGVKNIFFLTSNKMVPPVMRTLVEDKELNITGFLLPGNVSAIIGKKPYEFLSSEYNVSGVVTGFEPLDILKGLKVLIDIINNNASVIVNEYKRVVRDEGNVTALRYIKEVFEVTDSTWRGIGNIEKSGYKINTEYEQFDAVKQFNINYKECDSSSECRCGDILKGKITPIECSLFKKACTPDHPVGSCMVSYEGVCAAYYKFLNT,soluble
15,SLMAGSFCWRMLGLVSKVGNRARCFSSVAASEEELLDFSGSELQFNSCSLHLSLHPFFNFLLGIHSCFVCKESKTDVKRCVVTQCGKFYHEACVKKYPLTVFESRGFRCPLHSCVSCHASNPSNPRPSKGKMMRCVRCPVAYHSGDACLAAGCSVIASNSIICTAHFTARKGKRHHAHVNVSWCFVCSKGGSLLCCESCPAAFHPDCLNIEMPDGSWFCNDCRAGKKLHFQDIIWVKLGNYRWWPAEVCHPKNVPPNIQKMKHEIGEFPVFFFGSKDYYWTHQARVFPYMEGDRGSRYQGVRGIGRVFKNALQEAEARFREIKLQREARETQESERKPPPYKHIKVNKPYGKVQIYTADISEIPKCNCKPTDENPCGFDSECLNRMLMFECHPQVCPAGEFCQNQCFTKRQYPETKIIKTDGKGWGLVAKRDIRKGEFVNEYVGELIDEEECMARIKHAHENDITHFYMLTIDKDRIIDAGPKGNYSRFMNHSCQPNCETLKWTVNGDTRVGLFAVCDIPAGTELTFNYNLDCLGNEKTVCRCGASNCSGFLGDRPKTSTTLSSEEKGKKTKKKTRRRRAKGEGKRQSEDECFRCGDGGQLVLCDRKFCTKAYHLSCLGLGKRPFGKWECPWHHCDVCGKPSTSFCHLCPNSFCKEHQDGTAFSCTPDGRSYCCEHDLGAASVRSTKTEKPPPEPGKPKGKRRRRRGWRRVTEGK,soluble
16,SLNKKFSYPIPNFTDRRKSIIFWRYLRFQARKILYFPQVRLLEKTLNKEKNKHLKDFFSQRPYACYNATRRFCDKSFKANERVKTLIYDVDKGLACFKFLPEEQIIFSFDEDFELFLGYNYNVCEEGFWAFSLKFKKYTILQCNFCFTLENNLLLSCIQGHKYKDFNILEINKILTKKCHGLRPVALLIECSKMLCEILKLQTTLGVHEKNQIRSQKGKEKGYFVDYQKIWLENGGELIKINKHKYYKLHHSQKNLEEIPSQKRSMYKKRFAMLEEIKTNLDKTLSIQD,not soluble
17,SLNSLASHTFISGSTGTGKSNTVYEILDEVRKHGVKFLVVEPVKGEYKHIFGNDENVSVYGTNPELSDLLRINPFAFPKGIHVLEHLDRLIEIFNVCWPMYAAMPAVLKNAVERAYEDSGWDLLKSINSYGDLYPTFADVTRNIKEIIDSSEYDNENKGAYKGSLLTRLESLTNGINGMIFTNQAITDKELFDENVIIDLSRVGSTETKSLIMGMLVLKLQEYRMTHTDSLNNILKHVTVLEEAHNILKRTSNEQSMEDSNLVGKSVEMIANGIAEMRTYGEGFIIADQAPGLMDMAVIRNTNTKIIMRLPDFSDRELVGKSANL,not soluble
18,SLPKFGIEKRYNAAKSDIVSYLEKNNRNTSLGARFDMWENALIAIKEAPIFGHGSDGYDEFRHKQVKSKQMAKTTLNFGSLHNQYLESWVKRG,not soluble
19,SLPNGEGLQLKENSESEGVSCHYWSLFDGHAGSGAAVVASRLLQHHITEQLQDIVDILKNSAVLPPTCLGEEPENTPANSRTLTRAASLRGGVGAPGSPSTPPTRFFTEKKIPHECLVIGALESAFKEMDLQIERERSSYNISGGCTALIVICLLGKLYVANAGDSRAIIIRNGEIIPMSSEFTPETERQRLQYLAFMQPHLLGNEFTHLEFPRRVQRKELGKKMLYRDFNMTGWAYKTIEDEDLKFPLIYGEGKKARVMATIGVTRGLGDHDLKVHDSNIYIKPFLSSAPEVRIYDLSKYDHGSDDVLILATDGLWDVLSNEEVAEAITQFLPNCDPDDPHRYTLAAQDLVMRARGVLKDRGWRISNDRLGSGDDISVYVIPLIHGNKLS,not soluble
